Where two headings read alike, the source gives them in different places. One block for each binder: values may come before it.
Experiments:
murine MMP-12 [1] = molecular target: T1, murine MMP-12 (UniProt P34960 110-473); experiment: enzyme inhibition; recombinant; peptide substrate
human MMP-12 [2] = molecular target: T2, human MMP-12 (UniProt P39900 106-470)
murine MMP-12 [3] = molecular target: T1, murine MMP-12
human MMP-12 [4] = molecular target: T2, human MMP-12; experiment: enzyme inhibition
murine MMP-12 [5] = molecular target: T1, murine MMP-12; experiment: -; column head prints nM
murine MMP-12 [6] = molecular target: T1, murine MMP-12; experiment: enzyme inhibition
M107-A12 [7] = molecular target: M107-A12
Target sequence in this assay (P34960 110-473): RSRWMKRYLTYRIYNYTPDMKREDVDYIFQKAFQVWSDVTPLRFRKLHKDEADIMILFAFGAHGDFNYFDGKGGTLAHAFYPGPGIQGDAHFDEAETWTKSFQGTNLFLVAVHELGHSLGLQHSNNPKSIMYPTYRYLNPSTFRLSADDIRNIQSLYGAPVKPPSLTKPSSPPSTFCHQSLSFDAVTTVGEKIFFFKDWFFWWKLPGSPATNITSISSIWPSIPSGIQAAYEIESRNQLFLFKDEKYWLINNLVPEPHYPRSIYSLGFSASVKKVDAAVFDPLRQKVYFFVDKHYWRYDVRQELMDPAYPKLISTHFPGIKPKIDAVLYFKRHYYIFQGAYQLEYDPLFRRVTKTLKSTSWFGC

M109-G11 [8] = molecular target: M109-G11
Target sequence in this assay (P34960 110-473): as above

M118-F11 [9] = experiment: -; column head prints nM
Target sequence in this assay (P34960 110-473): as above

M121-E07 [10] = experiment: -; column head prints nM
Target sequence in this assay (P34960 110-473): as above

M118-F11 [11] = molecular target: M118-F11
M107-A12 [12] = molecular target: M107-A12; remark: listed apart in the source
M109-G11 [13] = molecular target: M109-G11; remark: listed apart in the source
M121-E07 [14] = molecular target: M121-E07

T1 sequence (P34960 110-473): as above
Chain of M088-H10 (P34960 110-473): as above

B1: 539B-M0008-H09 (format not stated) (antibody, V domains shown)
VH: EVQLLESGGGLVQPGGSLRLSCAASGFTFSDYNMHWVRQAPGKGLEWVSYIGPSGGYTHYADSVKGRFTISRDNSKNTLYLQMNSLRAEDTAVYYCAKDIRGAYSSGLFDYWGRGTLVTVSS
VL: DIQMTQSPSSLSASVGDRVTITCRANQSIYTYLNWYQQKPGKAPELLIYAASSLQSGVPSRFSGSGSGTDFTLTISSLQPEDFATYYCQQAGIFGQGTKLEIK
- IC50 (murine MMP-12 [1]): 3.7 nM
- Kd (human MMP-12 [2]): 18 nM

B2: 539B-M0071-D09 (Fab, V domains shown)
VH: EVQLLESGGGLVQPGGSLRLSCAASGFTFSPYWMHWVRQAPGKGLEWVSGISSSGGDTLYADSVKGRFTISRDNSKNTLYLQMNSLRAEDTAVYYCAKDIRGAYSSGLFDYWGRGTLVTVSS
VL: DIQMTQSPSSLSASVGDRVTITCRANQSIYTYLNWYQQKPGKAPELLIYAASSLQSGVPSRFSGSGSGTDFTLTISSLQPEDFATYYCQQAGIFGQGTKLEIK
- Kd (human MMP-12 [2]): 4.2 nM
- Kd (murine MMP-12 [3]): 1.3 nM

B4: 539B-M0065-E12 (Fab, V domains shown)
VH: EVQLLESGGGLVQPGGSLRLSCAASGFTFSWYNMHWVRQAPGKGLEWVSGISPSGGNTMYADSVKGRFTISRDNSKNTLYLQMNSLRAEDTAVYYCAKDIRGAYSSGLFDYWGRGTLVTVSS
VL: DIQMTQSPSSLSASVGDRVTITCRANQSIYTYLNWYQQKPGKAPELLIYAASSLQSGVPSRFSGSGSGTDFTLTISSLQPEDFATYYCQQAGIFGQGTKLEIK
- Kd (human MMP-12 [2]): 1.1 nM
- Kd (murine MMP-12 [3]): 1.7 nM

B5: 539B-M0069-D10 (Fab, V domains shown)
VH: EVQLLESGGGLVQPGGSLRLSCAASGFTFSLYHMHWVRQAPGKGLEWVSGIGPSGGWTIYADSVKGRFTISRDNSKNTLYLQMNSLRAEDTAVYYCAKDIRGAYSSGLFDYWGRGTLVTVSS
VL: DIQMTQSPSSLSASVGDRVTITCRANQSIYTYLNWYQQKPGKAPELLIYAASSLQSGVPSRFSGSGSGTDFTLTISSLQPEDFATYYCQQAGIFGQGTKLEIK
- Kd (human MMP-12 [2]): 5.7 nM
- Kd (murine MMP-12 [3]): 3.4 nM

B7: 539B-M0071-H03 (Fab, V domains shown)
VH: EVQLLESGGGLVQPGGSLRLSCAASGFTFSPYWMHWVRQAPGKGLEWVSGIGPSGGPTFYADSIKGRFTISRDNSKNTLYLQMNSLRAEDTAVYYCAKDIRGAYSSGLFDYWGRGTLVTVSS
VL: DIQMTQSPSSLSASVGDRVTITCRANQSIYTYLNWYQQKPGKAPELLIYAASSLQSGVPSRFSGSGSGTDFTLTISSLQPEDFATYYCQQAGIFGQGTKLEIK
- Kd (human MMP-12 [2]): 1 nM

B8: 539B-M0011-H11 Fab (Fab, V domains shown)
VH: EVQLLESGGGLVQPGGSLRLSCAASGFTFSWYNMWWVRQAPGKGLEWVSYIYPSGGNTGYADSVKGRFTISRDNSKNTLYLQMNSLRAEDTAVYYCAVFEYSSSGPQGYWGQGTLVTVSS
VL: QSALTQPPSVSVAPGQTARITCGGNNIGTKSVHWYQQKSGQAPVLVVYDNSDRPSGIPERFSGSNSGNTATLTISRVEAGDEADYYCQVWDNSIDHVVFGGGTKLTVL
- IC50 (murine MMP-12 [6]): 9 nM

B9: 539B-M11H11 IgG (antibody, V domains shown)
VH: EVQLLESGGGLVQPGGSLRLSCAASGFTFSWYNMWWVRQAPGKGLEWVSYIYPSGGNTGYADSVKGRFTISRDNSKNTLYLQMNSLRAEDTAVYYCAVFEYSSSGPQGYWGQGTLVTVSS
VL: QSALTQPPSVSVAPGQTARITCGGNNIGTKSVHWYQQKSGQAPVLVVYDNSDRPSGIPERFSGSNSGNTATLTISRVEAGDEADYYCQVWDNSIDHVVFGGGTKLTVL
- IC50 (murine MMP-12 [6]): 3 nM

Next, values leading:

- IC50 (human MMP-12 [4]): 0.233 nM
B3: 539B-M131A06-GA-S (antibody, V domains shown)
VH: EVQLLESGGGLVQPGGSLRLSCAASGFTFSWYWMHWVRQAPGKGLEWVSGISPSGGMTMYADSVKGRFTISRDNSKNTLYLQMNSLRAEDTAVYYCARDIVGPYSAGLFDYWGRGTLVTVSS
VL: DIQMTQSPSSLSASVGDRVTITCRASQSIYTYLNWYQQKPGKAPKLLIYAASSLQSGVPSRFSGSGSGTDFTLTISSLQPEDFATYYCQQAGIFGQGTKLEIKR

- Kd (murine MMP-12 [5]): 0.0727 nM
- IC50 (human MMP-12 [4]): 0.321 nM
- Kd (human MMP-12 [2]): 0.18 nM
B6: 539B-M131A06 (antibody, V domains shown)
VH: EVQLLESGGGLVQPGGSLRLSCAASGFTFSWYWMHWVRQAPGKGLEWVSGISPSGGMTMYADSVKGRFTISRDNSKNTLYLQMNSLRAEDTAVYYCARDIVGPYSAGLFDYWGRGTLVTVSS
VL: DIQMTQSPSSLSASVGDRVTITCRANQSIYTYLNWYQQKPGKAPELLIYAASSLQSGVPSRFSGSGSGTDFTLTISSLQPEDFATYYCQQAGIFGQGTKLEIK

- Kd (M088-H10): 34.4 nM
- Kd (M107-A12 [7]): 0.9 nM
- Kd (M109-G11 [8]): 1 nM
- Kd (M118-F11 [9]): 0.727 nM
- Kd (M121-E07 [10]): 0.181 nM
B10: Mouse MMP12 (enzyme)
chain: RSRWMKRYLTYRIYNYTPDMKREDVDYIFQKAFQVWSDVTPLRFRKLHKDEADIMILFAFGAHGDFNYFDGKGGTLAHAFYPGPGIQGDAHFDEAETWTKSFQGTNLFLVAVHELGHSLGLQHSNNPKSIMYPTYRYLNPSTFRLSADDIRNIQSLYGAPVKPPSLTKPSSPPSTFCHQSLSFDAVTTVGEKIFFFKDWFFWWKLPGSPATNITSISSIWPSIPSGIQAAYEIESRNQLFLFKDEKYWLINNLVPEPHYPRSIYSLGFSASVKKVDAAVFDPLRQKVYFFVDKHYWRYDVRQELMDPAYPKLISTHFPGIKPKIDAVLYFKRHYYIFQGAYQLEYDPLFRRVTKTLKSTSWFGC

- Kd (M118-F11 [11]): 1.17 nM
- Kd (M107-A12 [12]): 1.8 nM
- Kd (M109-G11 [13]): 7.5 nM
- Kd (M121-E07 [14]): 0.197 nM
B11: Human MMP12 (enzyme)
chain: GPVWRKHYITYRINNYTPDMNREDVDYAIRKAFQVWSNVTPLKFSKINTGMADILVVFARGAHGDFHAFDGKGGILAHAFGPGSGIGGDAHFDEDEFWTTHSGGTNLFLTAVHEIGHSLGLGHSSDPKAVMFPTYKYVDINTFRLSADDIRGIQSLYGDPKENQRLPNPDNSEPALCDPNLSFDAVTTVGNKIFFFKDRFFWLKVSERPKTSVNLISSLWPTLPSGIEAAYEIEARNQVFLFKDDKYWLISNLRPEPNYPKSIHSFGFPNFVKKIDAAVFNPRFYRTYFFVDNQYWRYDERRQMMDPGYPKLITKNFQGIGPKIDAVFYSKNKYYYFFQGSNQFEYDFLLQRITKTLKSNSWFGC
